Legend:
GDH-L-CpCR = test system: T1, GDH-L-CpCR; assay: NADPH depletion at […] nm; format: biochemical; details: 100 mM phosphate pH 7.0, NADPH co-substrate, fused GDH; substrate of Km not given, OPBE by the assay
T1 construct: fusion: GDH N-terminal, (GGGGS)2 linker, CpCR C-terminal; pETDuet-1, E. coli BL21(DE3); with Glucose 1-dehydrogenase

CpCR-L-GDH = test system: T2, CpCR-L-GDH; assay: NADPH depletion at […] nm; format: biochemical; details: 100 mM phosphate pH 7.0, NADPH co-substrate, fused GDH; substrate of Km not given, OPBE by the assay
T2 construct: fusion: CpCR N-terminal, (GGGGS)2 linker, GDH C-terminal; about 69 kDa; pETDuet-1, E. coli BL21(DE3); with Glucose 1-dehydrogenase

purified protein = substrate: CCOC(=O)C(=O)CCc1ccccc1; assay: purified protein; format: biochemical, Lodderomyces parapsilosis; details: 100 mM phosphate pH 7.0, NADPH co-substrate, enzyme from pETDuet-1 strain, substrate of Km not given, OPBE by the assay

CCOC(=O)C(=O)CCc1ccccc1 [OPBE] was tested, and the Km (GDH-L-CpCR) was 16.5 mM and the Km (CpCR-L-GDH) was 18.9 mM.

B1: CpCR (Lodderomyces parapsilosis) (protein)
chain: MTKAVPDKFQGFAVSDPKNWNRPKLASYERKQINPHDVVLKNEVCGLCYSDIHTLSAGWQPLQRDNLVVGHEIIGEVIAVGDEVTEFKVGDRVGIGAASSSCRSCQRCDSDNEQYCKQGAATYNSKDVRSNNYVTQGGYSSHSIADEKFVFAIPEDLPSSYGAPLMCAGITVFSPLIRNLGLDARGKNVGIIGIGGLGHLALQFANAMGANVTAFSRSSSKKEQAMKLGAHDFVATGEDKTWYKNYDDHFDFILNCASGIDGLNLSEYLSTLKVDKKFVSVGLPPSEDKFEVSPFTFLQQGASFGSSLLGSKTEVKEMLNLAAKHNVRPMIEEVPISEENCAKALDRCHAGDVRYRFVFTDFDKAFKA
notes: full-length ORF, 368 residues, about 41 kDa; His-tagged, expressed from pETDuet-1 in E. coli BL21(DE3), Ni-NTA purified
Work on B1 yielded a Km (purified protein) of 19.32 mM, a kcat (purified protein) of 1.77 s⁻¹ and a kcat/Km (purified protein) of 91 M⁻¹ s⁻¹.
